In PMC10086585 (2023):

Molecular target: human recombinant netrin‐1, on AHC biosensors (human, UniProt O95631 25-604)
Assay: BLI

- Kd: 20.7 nM
B1: fibronectin leucine‐rich transmembrane protein (FLRT1), recombinant human (natural protein)
chain: IDSTTCPSVCRCDNGFIYCNDRGLTSIPADIPDDATTLYLQNNQINNAGIPQDLKTKVNVQVIYLYENDLDEFPINLPRSLRELHLQDNNVRTIARDSLARIPLLEKLHLDDNSVSTVSIEEDAFADSKQLKLLFLSRNHLSSIPSGLPHTLEELRLDDNRISTIPLHAFKGLNSLRRLVLDGNLLANQRIADDTFSRLQNLTELSLVRNSLAAPPLNLPSAHLQKLYLQDNAISHIPYNTLAKMRELERLDLSNNNLTTLPRGLFDDLGNLAQLLLRNNPWFCGCNLMWLRDWVKARAAVVNVRGLMCQGPEKVRGMAIKDITSEMDECFETGPQGGVANAAAKTTASNHASATTPQGSLFTLKAKRPGLRLPDSNIDYPMATGDGAKTLAIHVKALTADSIRITWKATLPASSFRLSWLRLGHSPAVGSITETLVQGDKTEYLLTALEPKSTYIICMVTMETSNAYVADETPVCAKAETADSYGPTTTLNQEQNAGPMASLP
